B1: Parental semaphorin3A (P-sema3A) (ligand, human, UniProt Q14563 21-771, looked up)
chain: NYQNGKNNVPRLKLSYKEMLESNNVITFNGLANSSSYHTFLLDEERSRLYVGAKDHIFSFDLVNIKDFQKIVWPVSYTRRDECKWAGKDILKECANFIKVLKAYNQTHLYACGTGAFHPICTYIEIGHHPEDNIFKLENSHFENGRGKSPYDPKLLTASLLIDGELYSGTAADFMGRDFAIFRTLGHHHPIRTEQHDSRWLNDPKFISAHLISESDNPEDDKVYFFFRENAIDGEHSGKATHARIGQICKNDFGGHRSLVNKWTTFLKARLICSVPGPNGIDTHFDELQDVFLMNFKDPKNPVVYGVFTTSSNIFKGSAVCMYSMSDVRRVFLGPYAHRDGPNYQWVPYQGRVPYPRPGTCPSKTFGGFDSTKDLPDDVITFARSHPAMYNPVFPMNNRPIVIKTDVNYQFTQIVVDRVDAEDGQYDVMFIGTDVGTVLKVVSIPKETWYDLEEVLLEEMTVFREPTAISAMELSTKQQQLYIGSTAGVAQLPLHRCDIYGKACAECCLARDPYCAWDGSACSRYFPTAKRRTRRQDIRNGDPLTHCSDLHHDNHHGHSPEERIIYGVENSSTFLECSPKSQRALVYWQFQRRNEERKEEIRVDDHIIRTDQGLLLRSLQQKDSGNYLCHAVEHGFIQTLLKVTLEVIDTEHLEELLHKDDDGDGSKTKEMSNSMTPSQKVWYRDFMQLINHPNLNTMDEFCEQVWKRDRKQRRQRPGHTPGNSNKWKHLQENKKGRNRRTHEFERAPRSV
notes: human parental semaphorin3A; Secreted into the medium; The preparation holds monomer (~95 kDa), dimer (~160 kDa) and ~70 kDa fragments from cleavage by furin; also called parental sema3A; original sema3A; source: HEK293, serum-free culture medium, purified (Ni-NTA agarose)
B2: Truncated-sema3A (T-sema3A) (domain or fragment, human, UniProt Q14563 21-516, looked up)
chain: NYQNGKNNVPRLKLSYKEMLESNNVITFNGLANSSSYHTFLLDEERSRLYVGAKDHIFSFDLVNIKDFQKIVWPVSYTRRDECKWAGKDILKECANFIKVLKAYNQTHLYACGTGAFHPICTYIEIGHHPEDNIFKLENSHFENGRGKSPYDPKLLTASLLIDGELYSGTAADFMGRDFAIFRTLGHHHPIRTEQHDSRWLNDPKFISAHLISESDNPEDDKVYFFFRENAIDGEHCGKATHARIGQICKNDFGGHRSLVNKWTTFLKARLICSVPGPNGIDTHFDELQDVFLMNFKDPKNPVVYGVFTTSSNIFKGSAVCMYSMSDVRRVFLGPYAHRDGPNYQWVPYQGRVPYPRPGTCPSKTFGGFDSTKDLPDDVITFARSHPAMYNPVFPMNNRPIVIKTDVNYQFTQIVVDRVDAEDGQYDVMFIGTDVGTVLKVVSIPKETWYDLEEVLLEEMTVFREPTAISAMELSTKQQQLYIGSTAGVAQLPLHR
notes: signal peptide in the construct; human semaphorin3A, amino acids 1-516 of the parental sema3A, with S257C to make an artificial disulfide dimerization site; Secreted into the medium; Without reducing agent it runs as a homodimer (~140 kDa double band) together with some monomer (~68 kDa); also called truncated semaphorin3A; source: HEK293 stably expressing (lentiviral vector NSPI), serum-free …

Data set [1] deals with the molecule itself. Kind of data set: SDS-PAGE without reducing agent, immunoblot; purified proteins on SDS-PAGE with or without dithiothreitol, immunoblotted with polyclonal goat anti-human sema3A; monomer to disulfide-linked dimer. A general note: Immunoblotting shows a protein as a band on a membrane.
Data set [2] addresses B2. Briefly: ELISA; homemade ELISA; 5 ug/mL purified CD72 coated on a MaxiSorp plate overnight at 4 C; 0-25 ug/mL purified P- or T-sema3A added for 3 h at 4 C; detected with polyclonal goat anti-sema3A and anti-goat HRP; Kd from the one site total binding equation (GraphPad Prism). To be noted: both partners purified.
Data set [3] has as its target B1. The data set is described as above. To be noted: both partners purified.

A word on the stoichiometry N: it is the number of molecules, sites or subunits per partner or assembly. Take B1: the “stoichiometry N” value in data set [1] stood at 2.

As for B2, the “stoichiometry N” value in data set [1] was found to be 2.

B3: CD72 recombinant protein, extracellular part (amino acids 117-359) (domain or fragment, UniProt P21854 117-359, looked up)
chain: RYLQVSQQLQQTNRVLEVTNSSLRQQLRLKITQLGQSAEDLQGSRRELAQSQEALQVEQRAHQAAEGQLQACQADRQKTKETLQSEEQQRRALEQKLSNMENRLKPFFTCGSADTCCPSGWIMHQKSCFYISLTSKNWQESQKQCETLSSKLATFSEIYPQSHSYYFLNSLLPNGGSGNSYWTGLSSNKDWKLTDDTQRTRTYAQSSKCNKVHKTWSWWTLESESCRSSLPYICEMTAFRFPD
notes: CD72, extracellular part, amino acids 117-359; source: HEK293 stably expressing (lentiviral vector NSPI), purified (Ni-NTA agarose)
The Kd is the concentration at which binding is half-saturated. For the molecule B3, the dissociation constant Kd is about 4.85 nM in data set [2] and about 7.3 nM in data set [3].

Values taken from PMC9871560, “Truncated-semaphorin3A is a potential regulatory molecule to restore immune homeostasis in immune-mediated diseases” (Frontiers in Pharmacology, 2022).
